# Results: FireProtDB (doi:10.1006/jmbi.2001.4956)
# B1: Guanyl-specific ribonuclease Sa, P05798 (parent)
# chain: DVSGTVCLSALPPEATDTLNLIASDGPFPYSQDGVVFQNRESVLPTQSYGYYHEYTVITPGARTRGTRRIITGEATQEDYYTGDHYATFSLIDQTC
# B2: Guanyl-specific ribonuclease Sa3, P30289 (parent)
# chain: MRIPPRLVALAGAAAVAATLIAGPVAAAAPASHAVAASSAASASVKAVGRVCYSALPSQAHDTLDLIDEGGPFPYSQDGVVFQNREGLLPAHSTGYYHEYTVITPGSPTRGARRIITGQQWQEDYYTADHYASFRRVDFAC
# Variants of: B1
# Details: Kitasatospora aureofaciens; pH 7; 25 °C; Thermal; CD; MOPS 30 mM; reversible: yes(>95 %); structure 1RGG; whole UniProt chain shown
row,Variant,ddG of mutation (higher = less stable) [kcal/mol]
1,DVSGTVCLSALPPEATDTLNLIASDGPFPYSQDGVVFQNRESVLPTQSYGYFHEYTVITPGARTRGTRRIITGEATQEDYYTGDHYATFSLIDQTC [Y52F],3.6
2,DVSGTVCLSALPPEATDTLNLIASDGPFPYSQDGVVFQNRESVLPTQSYGYYHEYTVITPGARTRGTRRIITGEATQEDYYTGDHFATFSLIDQTC [Y86F],0.3
3,DVSGTVCLSALPPEATDTLNLIASDGPFPYSQDGVVFQNRESVLPTQSYGYYHEFTVITPGARTRGTRRIITGEATQEDYYTGDHYATFSLIDQTC [Y55F],0.6
4,DVSGTVCLSALPPEATDTLNLIASDGPFPYSQDGVVFQNRESVLPTQSFGYYHEYTVITPGARTRGTRRIITGEATQEDYYTGDHYATFSLIDQTC [Y49F],0.2
5,DVSGTVCLSALPPEATDTLNLIASDGPFPFSQDGVVFQNRESVLPTQSYGYYHEYTVITPGARTRGTRRIITGEATQEDYYTGDHYATFSLIDQTC [Y30F],-0.4
6,DVSGTVCLSALPPEATDTLNLIASDGPFPYSQDGVVFQNRESVLPTQSYGYYHEYTVITPGARTRGTRRIITGEATQEDFYTGDHYATFSLIDQTC [Y80F],1.5
7,DVSGTVCLSALPPEATDTLNLIASDGPFPYSQDGVVFQNRESVLPTQSYGYYHEYTVITPGARTRGTRRIITGEATQEDYFTGDHYATFSLIDQTC [Y81F],1.2

# Variants of: B2
# Details: Kitasatospora aureofaciens; pH 7; 25 °C; Thermal; CD; MOPS 30 mM; reversible: yes(>95 %); structure 1MGR; whole UniProt chain shown
row,Variant,ddG of mutation (higher = less stable) [kcal/mol]
1,MRIPPRLVALAGAAAVAATLIAGPVAAAAPASHAVAASSAASASVKAVGRVCYSALPSQAHDTLDLIDEGGPFPYSQDGVVFQNREGLLPAHSTGYYHEYTVITPGSPTRGARRIITGQQWQEDYYTADHFASFRRVDFAC [Y131F],0
2,MRIPPRLVALAGAAAVAATLIAGPVAAAAPASHAVAASSAASASVKAVGRVCYSALPSQAHDTLDLIDEGGPFPYSQDGVVFQNREGLLPAHSTGYFHEYTVITPGSPTRGARRIITGQQWQEDYYTADHYASFRRVDFAC [Y97F],2.1
3,MRIPPRLVALAGAAAVAATLIAGPVAAAAPASHAVAASSAASASVKAVGRVCYSALPSQAHDTLDLIDEGGPFPFSQDGVVFQNREGLLPAHSTGYYHEYTVITPGSPTRGARRIITGQQWQEDYYTADHYASFRRVDFAC [Y75F],-0.5
4,MRIPPRLVALAGAAAVAATLIAGPVAAAAPASHAVAASSAASASVKAVGRVCYSALPSQAHDTLDLIDEGGPFPYSQDGVVFQNREGLLPAHSTGYYHEYTVITPGSPTRGARRIITGQQWQEDFYTADHYASFRRVDFAC [Y125F],1.5
5,MRIPPRLVALAGAAAVAATLIAGPVAAAAPASHAVAASSAASASVKAVGRVCYSALPSQAHDTLDLIDEGGPFPYSQDGVVFQNREGLLPAHSTGYYHEYTVITPGSPTRGARRIITGQQWQEDYFTADHYASFRRVDFAC [Y126F],1
6,MRIPPRLVALAGAAAVAATLIAGPVAAAAPASHAVAASSAASASVKAVGRVCYSALPSQAHDTLDLIDEGGPFPYSQDGVVFQNREGLLPAHSTGYYHEFTVITPGSPTRGARRIITGQQWQEDYYTADHYASFRRVDFAC [Y100F],0.7
